The data set deals with the molecule itself. Briefly: native gel or EMSA. For orientation: Mobility shift assays separate free from complexed probe on a gel.

B1: Mitomycin-7-O-methyltransferase (MmcR), recombinant N-His6-MmcR (enzyme, Streptomyces lavendulae)
chain: MTVEQTPENPGTAARAAAEETVNDILQGAWKARAIHVAVELGVPELLQEGPRTATALAEATGAHEQTLRRLLRLLATVGVFDDLGHDDLFAQNALSAVLLPDPASPVATDARFQAAPWHWRAWEQLTHSVRTGEASFDVANGTSFWQLTHEDPKARELFNRAMGSVSLTEAGQVAAAYDFSGAATAVDIGGGRGSLMAAVLDAFPGLRGTLLERPPVAEEARELLTGRGLADRCEILPGDFFETIPDGADVYLIKHVLHDWDDDDVVRILRRIATAMKPDSRLLVIDNLIDERPAASTLFVDLLLLVLVGGAERSESEFAALLEKSGLRVERSLPCGAGPVRIVEIRRA
modifications: selenomethionine (SeMet-labeled protein used for the crystals)
B1: the “stoichiometry N” value was found to be 2.

For orientation: stoichiometry N means a count of units in the complex or per binding partner.

Values taken from paper PMC3115387 (Proteins, 2011).
